Experimental data: IntAct's records for PubMed 23602662

B1: OX-2 membrane glycoprotein (Mus musculus), O54901 (parent)
chain: MGSLVFRRPFCHLSTYSLIWGMAAVALSTAQVEVVTQDERKALHTTASLRCSLKTSQEPLIVTWQKKKAVSPENMVTYSKTHGVVIQPAYKDRINVTELGLWNSSITFWNTTLEDEGCYMCLFNTFGSQKVSGTACLTLYVQPIVHLHYNYFEDHLNITCSATARPAPAISWKGTGTGIENSTESHFHSNGTTSVTSILRVKDPKTQVGKEVICQVLYLGNVIDYKQSLDKGFWFSVPLLLSIVSLVILLVLISILLYWKRHRNQERGESSQGMQRMK
partner: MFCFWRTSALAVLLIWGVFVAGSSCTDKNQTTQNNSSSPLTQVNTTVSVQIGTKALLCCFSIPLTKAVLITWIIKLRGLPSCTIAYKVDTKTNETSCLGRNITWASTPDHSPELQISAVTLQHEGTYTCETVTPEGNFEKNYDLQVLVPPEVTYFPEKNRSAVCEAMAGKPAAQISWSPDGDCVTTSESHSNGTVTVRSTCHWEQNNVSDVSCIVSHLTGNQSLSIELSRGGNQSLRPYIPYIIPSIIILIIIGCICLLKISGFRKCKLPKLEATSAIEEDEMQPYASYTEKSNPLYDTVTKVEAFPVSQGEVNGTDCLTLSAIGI
B2: Cell surface glycoprotein CD200 receptor 4 (Mus musculus), Q6XJV4 (parent)
chain: MHALGRIPTLTLLIFINIFVSGSSCTDENQTIQNDSSSSLTQVNTTMSVQMDKKALLCCFSSPLINAVLITWIIKHRHLPSCTIAYNLDKKTNETSCLGRNITWASTPDHSPELQISAVALQHEGTYTCEIVTPEGNLEKVYDLQVLVPPEVTYFPGKNRTAVCEAMAGKPAAQISWTPDGDCVTKSESHSNGTVTVRSTCHWEQNNVSVVSCLVSHSTGNQSLSIELSQGTMTTPRSLLTILYVKMALLVIILLNVGFAFFQKRNFART
partner: B1 chain

Variants of: B1
Settings: with mo2r1_mouse Cd200r1, Q9ES57

Variant	effect of a mutation on the interaction
F126D	disrupting interaction strength
F126A	disrupting interaction strength
K130E	disrupting interaction strength
I61E	disrupting interaction strength
L122A	disrupting interaction strength
L60K	disrupting interaction strength
N74A	disrupting interaction strength
N74D	disrupting interaction strength
N124K	disrupting interaction strength

Variants of: B2
Settings: with ox2g_mouse Cd200, O54901

Variant	effect of a mutation on the interaction
N87K;K90T	increasing interaction strength
N87K;K90T;L138F	increasing interaction strength
L138F	increasing interaction strength
